The target of assay [1] is wild-type (WT) SARS-CoV-2 S-protein trimer (SARS-CoV-2) (UniProt P0DTC2).
For assay [2], the target named is prefusion stabilized SARS-CoV-2 S-protein trimer (SARS-CoV-2) (UniProt P0DTC2). The assay can be described thus: ELISA. For orientation: ELISA stands for enzyme-linked immunosorbent assay.
Assay [3] has as its target wild-type (WT) SARS-CoV-2 S-protein trimer (SARS-CoV-2) (UniProt P0DTC2). The assay can be described thus: ELISA.
The target in a further assay is Fc-Li-PD (human) (UniProt Q9BYF1). The assay can be described thus: BLI. For orientation: BLI is a label-free optical method that tracks binding on a fibre tip over time.
Another assay concerns the target PD-CLD-Fc (human) (UniProt Q9BYF1). The assay can be described thus: BLI.
For another assay, the target named is PD-Fc (human) (UniProt Q9BYF1). As to the kind of experiment: BLI.
In another assay the target is PD-Li-Fc (human) (UniProt Q9BYF1). As to the kind of experiment: BLI.

In the case of “PD-Li-Fc (from UniProt Q9BYF1 18-615) (Fc fusion)”, the IC50 of neutralisation: infection of ACE2-transduced HEK293T cells by SARS-CoV-2 pseudotyped VSV particles (luciferase); S protein on the pseudovirus with cell-surface ACE2 in assay [1] amounted to 12 nM.
For “PD-CLD-Fc (from UniProt Q9BYF1 18-740) (Fc fusion)”, the figures for the IC50 in assay [2] and in assay [3] were 10 nM and 0.1 nM, respectively.
Consider “PD-Fc (from UniProt Q9BYF1 18-615) (Fc fusion)”, for which, in assay [1], the IC50 of neutralisation: infection of ACE2-transduced HEK293T cells by SARS-CoV-2 pseudotyped VSV particles (luciferase); S protein on the pseudovirus with cell-surface ACE2 was found to be 12 nM.
On to “S1 monomer (BLI of Fig. 3B) (domain or fragment)”, for which the Kd in the assay with Fc-Li-PD (human) came out at 45 nM; in the assay with PD-CLD-Fc (human) it was 11 nM. The ratio of the KD for S1 monomer to the KD for S-protein trimer with PD-Fc (human) and with PD-Li-Fc (human) was 3 fold in each case.

By IC50 is commonly meant the midpoint of a concentration-inhibition curve. A high value points to weaker potency in that assay. As a reminder, the Kd is the free concentration of one partner at which half of the binding sites on the other are occupied at equilibrium, for simple one-to-one binding. High values mean weaker binding, low ones tighter binding.

The record behind these values is publication PMC9728973.
